Literature values as cited in article PMC3295331.
pKd: −log10 of the molar value.

Biological target: Cav3.1 (UniProt O54898)
Sequence of UniProt O54898 (O54898 whole entry): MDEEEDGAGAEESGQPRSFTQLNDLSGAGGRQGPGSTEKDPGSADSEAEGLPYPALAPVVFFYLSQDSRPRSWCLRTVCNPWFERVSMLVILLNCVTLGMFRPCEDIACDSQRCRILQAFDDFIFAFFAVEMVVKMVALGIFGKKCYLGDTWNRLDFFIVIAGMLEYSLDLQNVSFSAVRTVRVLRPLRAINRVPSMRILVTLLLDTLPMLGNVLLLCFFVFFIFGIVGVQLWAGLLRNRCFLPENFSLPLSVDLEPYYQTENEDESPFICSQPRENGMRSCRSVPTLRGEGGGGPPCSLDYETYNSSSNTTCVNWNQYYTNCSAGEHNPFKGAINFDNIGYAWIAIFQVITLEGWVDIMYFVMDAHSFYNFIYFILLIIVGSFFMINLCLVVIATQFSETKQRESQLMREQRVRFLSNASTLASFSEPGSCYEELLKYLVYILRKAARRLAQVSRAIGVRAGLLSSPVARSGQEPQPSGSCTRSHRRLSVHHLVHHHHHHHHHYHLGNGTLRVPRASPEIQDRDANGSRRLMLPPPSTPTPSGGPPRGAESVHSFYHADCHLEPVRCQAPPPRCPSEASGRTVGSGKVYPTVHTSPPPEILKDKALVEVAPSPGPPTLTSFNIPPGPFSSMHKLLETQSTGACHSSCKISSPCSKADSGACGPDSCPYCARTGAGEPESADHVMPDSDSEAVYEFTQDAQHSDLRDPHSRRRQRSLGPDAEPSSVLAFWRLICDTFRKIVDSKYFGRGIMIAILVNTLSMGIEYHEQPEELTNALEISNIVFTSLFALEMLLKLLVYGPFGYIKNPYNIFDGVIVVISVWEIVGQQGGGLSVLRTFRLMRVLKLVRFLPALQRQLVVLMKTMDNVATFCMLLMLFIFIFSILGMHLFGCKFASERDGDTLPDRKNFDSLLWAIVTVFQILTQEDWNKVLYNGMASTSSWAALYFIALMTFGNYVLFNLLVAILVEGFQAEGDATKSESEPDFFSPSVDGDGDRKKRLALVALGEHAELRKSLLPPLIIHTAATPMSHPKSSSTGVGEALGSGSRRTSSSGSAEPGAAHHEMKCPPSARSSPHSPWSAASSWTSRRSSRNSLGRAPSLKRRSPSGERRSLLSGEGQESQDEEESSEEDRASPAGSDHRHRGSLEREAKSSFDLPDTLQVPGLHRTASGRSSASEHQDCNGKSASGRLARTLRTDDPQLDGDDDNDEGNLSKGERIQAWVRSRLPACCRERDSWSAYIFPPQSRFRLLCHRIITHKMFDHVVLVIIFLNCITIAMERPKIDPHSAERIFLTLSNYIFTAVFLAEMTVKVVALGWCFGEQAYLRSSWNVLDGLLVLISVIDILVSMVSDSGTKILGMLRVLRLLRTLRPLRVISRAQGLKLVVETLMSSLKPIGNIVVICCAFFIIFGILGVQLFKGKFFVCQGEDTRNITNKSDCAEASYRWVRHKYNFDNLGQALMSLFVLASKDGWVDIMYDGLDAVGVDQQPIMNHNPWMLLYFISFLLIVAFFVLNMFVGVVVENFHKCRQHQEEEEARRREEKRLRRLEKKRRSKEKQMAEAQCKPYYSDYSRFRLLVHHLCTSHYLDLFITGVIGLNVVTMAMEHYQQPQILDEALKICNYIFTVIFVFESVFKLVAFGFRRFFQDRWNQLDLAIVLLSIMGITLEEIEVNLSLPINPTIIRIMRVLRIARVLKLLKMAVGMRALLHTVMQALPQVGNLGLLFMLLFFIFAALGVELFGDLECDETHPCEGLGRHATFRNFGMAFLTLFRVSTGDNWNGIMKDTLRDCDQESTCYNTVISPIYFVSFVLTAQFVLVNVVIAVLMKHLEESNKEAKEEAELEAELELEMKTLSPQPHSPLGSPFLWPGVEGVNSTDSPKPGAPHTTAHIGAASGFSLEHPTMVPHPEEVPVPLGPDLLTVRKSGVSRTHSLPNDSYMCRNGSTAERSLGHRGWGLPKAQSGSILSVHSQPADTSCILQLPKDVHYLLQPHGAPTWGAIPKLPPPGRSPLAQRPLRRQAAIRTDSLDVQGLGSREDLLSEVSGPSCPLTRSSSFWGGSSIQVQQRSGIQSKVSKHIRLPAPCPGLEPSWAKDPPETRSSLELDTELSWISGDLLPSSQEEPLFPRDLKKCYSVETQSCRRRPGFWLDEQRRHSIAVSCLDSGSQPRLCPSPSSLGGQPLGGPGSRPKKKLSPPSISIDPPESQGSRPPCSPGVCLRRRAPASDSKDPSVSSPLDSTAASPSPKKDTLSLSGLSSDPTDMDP

Substance: Kurtoxin (from UniProt P58910)
- pKd: 7.82
